The source of these data is PMC10454365.

The term Kd denotes the equilibrium constant for the complex coming apart. The term koff denotes the rate constant with which the complex falls apart. For orientation: kon means the second-order rate constant of association.

This experiment concerns the target Recombinant human LY6K protein (LY6K-Wt) (human) (UniProt Q17RY6). As to the kind of experiment: SPR; LY6K immobilised on a CM5 chip by amine coupling (~6200–7000 RU); TbR1 injected at various concentrations, 50 μL/min; Biacore T200, 25 °C; running buffer PBS-P + 5% DMSO; 1:1 kinetics binding model. (In general: Surface plasmon resonance follows binding to a sensor surface in real time, without labels.)

B1: Recombinant human TbR1 protein (receptor)
chain: LQCFCHLCTKDNFTCVTDGLCFVSVTETTDKVIHNSMCIAEIDLIPRDRPFVCAPSSKTGSVTTTYCCNQDHCNKIELPTTVKSSPGLGPVEL
For the molecule B1, the Kd amounted to 9.2 nM, the off-rate constant (koff) came to 0.000468 s⁻¹ and the association rate constant (kon) came to 51000 M⁻¹ s⁻¹.
